The results in this text go back to US20110195494A1 (Boehringer Ingelheim, published 2011).

Residue numbers refer to the chain shown, from its start. Values joined by “and” are separate entries in the source; they are usually repeats but may differ in a detail not shown here. Equal values may be shown once.

The term EC50 (read off the curve) denotes the concentration that produces a half-maximal response. A word on the EC50: it is the concentration that produces a half-maximal response. The IC50 is the midpoint of a concentration-inhibition curve. By Kd is commonly meant a measure of binding affinity in units of concentration. As a reminder, the koff is the rate constant with which the complex falls apart. What is called kon is a measure of how fast the partners come together.

Assay [1] addresses T1, full length human DLL4 on overexpressing CHO or HEK293 cells (human, UniProt Q9NR61 27-685).
T1 construct: also called CHO-hDLL4; HEK293-hDII4
Briefly: FMAT, hNotch1/Fc on CHO-hDLL4, periplasmic extract. From the text:
(§1) All calculations are based on the FL1 total signal which comprises the average of the fluorescence per well times the number of counts per well.

The target in assay [2] is T2, full length mouse DLL4 on overexpressing CHO or HEK293 cells (mouse, UniProt Q9JI71 27-686).
T2 construct: whole, on cells; also called CHO-mDLL4; mDLL4
Briefly: FACS on HEK293-mDLL4 cells. On the procedure: In order to determine the cynomologus cross-reactivity of the VHHs, a FACS binding experiment is performed. Cynomolgus DII4 expressing HEK293 cells (transient or stable transfection) are used for a titration binding experiment of the VHHs. After a 30 minutes incubation on ice, all samples are washed and detection is performed by applying anti-c-myc˜Alexa647 (Santa Cruz Biotechnology, Santa Cruz, Calif., USA). Human and mouse DII4 overexpressing HEK293 cells are taken as reference. The mean MCF value is determined on the FACS Array and used for calculation of the EC₅₀ value (see FIG. 9).

Assay [3] deals with T2, full length mouse DLL4 on …. The experiment in a line: FMAT, hNotch1/Fc on CHO-mDLL4, periplasmic extract.
From the text: as §1

The target in another assay is T3, human Jagged-1 (Alexis) (human, UniProt P78504 34-1067, limits assumed).
T3 construct: also called hJag-1; hJAG1
The experiment in a line: binding ELISA, coated rhJagged-1. (ELISA stands for enzyme-linked immunosorbent assay.)

Assay [4] addresses T4, recombinant human DLL4, C-terminally His-tagged extracellular domain (R&D Systems) (human, UniProt Q9NR61 25-522, biotinylated where used in competition ELISA, AlphaScreen and on SA chips).
T4 construct: also called rhDLL4; hDLL4; not shown: C-terminal His tag
Briefly: binding ELISA, coated rhDLL4.

For another assay, the target named is T5, human DLL1 (Alexis) (human, UniProt O00548 18-545, limits assumed).
T5 construct: also called hDLL1; rhDLL1
T5 sequence (looked up): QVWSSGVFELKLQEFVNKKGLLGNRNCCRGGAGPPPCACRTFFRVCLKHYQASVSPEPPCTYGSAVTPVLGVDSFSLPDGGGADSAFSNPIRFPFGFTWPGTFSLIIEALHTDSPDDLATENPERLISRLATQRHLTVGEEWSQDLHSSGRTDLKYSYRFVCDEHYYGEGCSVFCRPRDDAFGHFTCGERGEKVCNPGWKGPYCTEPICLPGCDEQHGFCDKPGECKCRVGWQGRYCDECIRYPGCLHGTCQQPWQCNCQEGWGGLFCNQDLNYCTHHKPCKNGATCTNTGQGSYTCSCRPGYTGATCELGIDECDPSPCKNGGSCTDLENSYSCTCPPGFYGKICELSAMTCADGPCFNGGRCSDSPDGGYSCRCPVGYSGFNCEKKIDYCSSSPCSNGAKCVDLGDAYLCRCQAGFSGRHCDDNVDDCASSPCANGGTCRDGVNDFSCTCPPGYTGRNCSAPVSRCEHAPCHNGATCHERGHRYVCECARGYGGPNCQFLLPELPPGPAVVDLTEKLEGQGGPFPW
Briefly: binding ELISA, coated rhDLL1.

Assay [5] has as its target T1, full length human DLL4 on …. The experiment in a line: FMAT competition: labelled hNotch1/Fc on CHO-hDLL4 cells.
From the text: as §1

For assay [6], the target named is T2, full length mouse DLL4 on …. Briefly: FMAT competition: labelled hNotch1/Fc on CHO-mDLL4 cells.
From the text: as §1

Assay [7] addresses full length human DLL4 on overexpressing CHO or HEK293 cells (human) (UniProt Q9NR61). Briefly: FACS on CHO-hDLL4.
In assay [8] the target is recombinant human DLL4, C-terminally His-tagged extracellular domain (R&D Systems) (human) (UniProt Q9NR61). Briefly: hDLL4/hNotch1-Fc competition AlphaScreen. For orientation: Alpha assays give light when donor and acceptor beads are brought close together.
In assay [9] the target is full length human DLL4 on overexpressing CHO or HEK293 cells (human) (UniProt Q9NR61). Briefly: cell-based or functional assay.
Assay [10] concerns the target recombinant human DLL4, C-terminally His-tagged extracellular domain (R&D Systems) (human) (UniProt Q9NR61). The experiment in a line: cell-based or functional assay.
The target in assay [11] is full length human DLL4 on overexpressing CHO or HEK293 cells (human) (UniProt Q9NR61). Briefly: FMAT competition, hDLL4 on cells, summary Table 21.
For assay [12], the target named is full length mouse DLL4 on overexpressing CHO or HEK293 cells (mouse) (UniProt Q9JI71). Briefly: FMAT, hNotch1/Fc on CHO-mDLL4.
The target in assay [13] is recombinant human DLL4, C-terminally His-tagged extracellular domain (R&D Systems) (human) (UniProt Q9NR61). The experiment in a line: hDLL4/hNotch1-Fc competition ELISA.
The target of assay [14] is recombinant mouse DLL4, C-terminally His-tagged extracellular domain (R&D Systems) (mouse) (UniProt Q9JI71). The experiment in a line: binding ELISA, coated rmDLL4.
Assay [15] has as its target recombinant human DLL4, C-terminally His-tagged extracellular domain (R&D Systems) (human) (UniProt Q9NR61). The experiment in a line: SPR, rhDLL4. In general terms: Surface plasmon resonance follows binding to a sensor surface in real time, without labels.
Assay [16] concerns the target full length human DLL4 on overexpressing CHO or HEK293 cells (human) (UniProt Q9NR61). The experiment in a line: FMAT, hNotch1/Fc on CHO-hDLL4.
Assay [17] addresses recombinant human DLL4, C-terminally His-tagged extracellular domain (R&D Systems) (human) (UniProt Q9NR61). The experiment in a line: affinity on hDLL4, summary Table 21 (method not named there).
For assay [18], the target named is full length human DLL4 on overexpressing CHO or HEK293 cells (human) (UniProt Q9NR61). Briefly: FMAT, hNotch1/Fc on CHO-hDLL4. This is another data set of the same source.
Assay [19] addresses full length mouse DLL4 on overexpressing CHO or HEK293 cells (mouse) (UniProt Q9JI71). The experiment in a line: FMAT competition, mDLL4 on cells, summary Table 21.
Assay [20] concerns the target recombinant human DLL4, C-terminally His-tagged extracellular domain (R&D Systems) (human) (UniProt Q9NR61). Briefly: hDLL4/hNotch1-Fc competition ELISA. This is another data set of the same source.
Assay [21] has the same target. The experiment in a line: competition ELISA, summary Table 21.
The target in assay [22] is full length mouse DLL4 on overexpressing CHO or HEK293 cells (mouse) (UniProt Q9JI71). The experiment in a line: FMAT, hNotch1/Fc on CHO-mDLL4. The source holds these as a separate data set.
The target is the same in assay [23]. The experiment in a line: FACS on CHO-mDLL4.
In assay [24] the target is recombinant human DLL4, C-terminally His-tagged extracellular domain (R&D Systems) (human) (UniProt Q9NR61). Briefly: binding ELISA, coated rhDLL4.
For assay [25] the target is unchanged. The experiment in a line: SPR Biacore T100, hDLL4 on chip.
For assay [26], the target named is cynomolgus DLL4 on overexpressing cells (cynomolgus (SEQ ID NO: 418 is the rhesus entry, stated 100% identical)). The experiment in a line: FACS on CHO-cDLL4.
cynomolgus DLL4 on overexpressing cells (cynomolgus (SEQ ID NO: 418 is the rhesus entry, stated 100% identical)), sequence (Q9NR61 other isoform, or with tags, fused parts or gaps limits assumed): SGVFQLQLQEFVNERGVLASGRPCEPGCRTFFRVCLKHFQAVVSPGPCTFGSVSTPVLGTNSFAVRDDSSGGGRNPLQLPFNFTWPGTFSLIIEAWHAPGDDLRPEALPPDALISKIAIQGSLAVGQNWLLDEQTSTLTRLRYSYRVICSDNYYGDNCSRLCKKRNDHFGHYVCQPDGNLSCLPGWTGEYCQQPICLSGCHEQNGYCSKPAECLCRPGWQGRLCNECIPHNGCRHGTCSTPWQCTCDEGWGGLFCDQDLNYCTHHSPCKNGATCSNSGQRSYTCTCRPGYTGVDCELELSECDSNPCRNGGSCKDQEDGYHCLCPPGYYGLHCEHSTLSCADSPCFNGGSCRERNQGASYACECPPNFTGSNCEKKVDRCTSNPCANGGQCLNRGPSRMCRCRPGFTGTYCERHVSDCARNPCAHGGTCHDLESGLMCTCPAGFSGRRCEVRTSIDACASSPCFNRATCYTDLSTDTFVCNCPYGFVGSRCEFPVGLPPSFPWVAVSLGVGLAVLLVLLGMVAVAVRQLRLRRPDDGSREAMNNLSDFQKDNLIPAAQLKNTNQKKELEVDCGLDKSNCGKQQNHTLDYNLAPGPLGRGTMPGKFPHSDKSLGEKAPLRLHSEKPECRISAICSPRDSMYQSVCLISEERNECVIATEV

T1 sequence (Q9NR61 27-685 limits assumed): as the sequence (Q9NR61 other isoform, or with tags, fused parts or gaps limits assumed) above, with V12I, S52T, S359N, R413L, S434N counted along it
full length human DLL4 on overexpressing CHO or HEK293 cells (human), sequence (Q9NR61 27-685 limits assumed): as the sequence (Q9NR61 other isoform, or with tags, fused parts or gaps limits assumed) above, with V12I, S52T, S359N, R413L, S434N counted along it
T4 sequence (Q9NR61 25-522): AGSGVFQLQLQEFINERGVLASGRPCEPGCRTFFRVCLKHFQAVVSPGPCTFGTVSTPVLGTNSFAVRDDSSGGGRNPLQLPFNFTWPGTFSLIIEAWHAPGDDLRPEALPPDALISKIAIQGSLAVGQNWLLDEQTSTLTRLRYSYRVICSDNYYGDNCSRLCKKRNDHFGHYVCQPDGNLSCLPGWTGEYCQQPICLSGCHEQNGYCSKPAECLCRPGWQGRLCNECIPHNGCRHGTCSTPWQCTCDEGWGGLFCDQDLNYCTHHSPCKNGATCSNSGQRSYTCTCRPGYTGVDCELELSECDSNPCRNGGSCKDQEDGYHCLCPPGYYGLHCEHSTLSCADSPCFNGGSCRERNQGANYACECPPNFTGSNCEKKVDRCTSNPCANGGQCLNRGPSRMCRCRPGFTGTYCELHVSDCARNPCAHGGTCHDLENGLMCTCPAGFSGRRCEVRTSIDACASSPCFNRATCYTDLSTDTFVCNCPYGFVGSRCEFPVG
recombinant human DLL4, C-terminally His-tagged extracellular domain (R&D Systems) (human), sequence (Q9NR61 25-522): as above
full length mouse DLL4 on overexpressing CHO or HEK293 cells (mouse), sequence (Q9JI71 27-686): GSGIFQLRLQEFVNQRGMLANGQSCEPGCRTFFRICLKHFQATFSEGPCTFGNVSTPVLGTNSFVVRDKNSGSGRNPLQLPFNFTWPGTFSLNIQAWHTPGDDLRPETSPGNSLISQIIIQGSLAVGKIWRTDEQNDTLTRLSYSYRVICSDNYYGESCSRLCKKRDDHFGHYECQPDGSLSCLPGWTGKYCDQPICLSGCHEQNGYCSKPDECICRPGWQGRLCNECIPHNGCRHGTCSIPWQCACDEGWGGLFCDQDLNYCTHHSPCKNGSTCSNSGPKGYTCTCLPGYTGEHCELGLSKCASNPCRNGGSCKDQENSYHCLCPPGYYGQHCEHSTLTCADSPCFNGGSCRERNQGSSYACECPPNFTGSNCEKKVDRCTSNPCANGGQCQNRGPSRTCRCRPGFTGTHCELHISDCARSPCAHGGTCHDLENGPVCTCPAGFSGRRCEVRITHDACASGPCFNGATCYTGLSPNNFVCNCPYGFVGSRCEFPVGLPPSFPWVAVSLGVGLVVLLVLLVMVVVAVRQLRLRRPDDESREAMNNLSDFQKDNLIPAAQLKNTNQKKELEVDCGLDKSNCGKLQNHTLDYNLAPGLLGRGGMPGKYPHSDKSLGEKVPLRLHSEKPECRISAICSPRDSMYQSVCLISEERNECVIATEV
T2 sequence (Q9JI71 27-686): as above
recombinant mouse DLL4, C-terminally His-tagged extracellular domain (R&D Systems) (mouse), sequence (Q9JI71 27-532): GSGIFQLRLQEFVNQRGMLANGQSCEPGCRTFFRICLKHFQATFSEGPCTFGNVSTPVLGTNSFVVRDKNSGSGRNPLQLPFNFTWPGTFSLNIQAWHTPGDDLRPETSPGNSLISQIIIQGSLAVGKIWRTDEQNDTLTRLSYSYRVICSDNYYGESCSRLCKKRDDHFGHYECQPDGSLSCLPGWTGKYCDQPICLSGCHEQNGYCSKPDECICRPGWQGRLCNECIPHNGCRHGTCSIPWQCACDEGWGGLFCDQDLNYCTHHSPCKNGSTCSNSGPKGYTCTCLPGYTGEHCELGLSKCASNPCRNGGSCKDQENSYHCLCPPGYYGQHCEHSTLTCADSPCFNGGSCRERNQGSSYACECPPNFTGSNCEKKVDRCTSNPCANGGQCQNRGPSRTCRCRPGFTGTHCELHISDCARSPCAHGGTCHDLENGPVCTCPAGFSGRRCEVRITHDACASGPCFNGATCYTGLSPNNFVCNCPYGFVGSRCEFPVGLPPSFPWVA

B1: DLLBII101G08 (VHH)
VHH: EVQLVESGGGLVQAGGSLRLSCAASGRTFSSYAMAWFRQAPGKEREFVAAIRWSGGTAYYADSVQGRFTISRDNAKNTVYLQMNSLKPEDTAVYYCANRAADTRLGPYEYDYWGQGTQVTVSS
notes: also called DLLBII101G8; 101G8; not shown: C-terminal c-myc tag and His6 tag
As to B1, the “FMAT hDLL4 % inhibition” value in assay [1] turned out to be 91%. Moreover, in assay [2], the “EC50 (read off the curve)” value lay within 37 to 40 nM. For the same molecule, the “FMAT mDLL4 % inhibition” value in [3] was determined as 92%.

B2: DLLBII129B05 (VHH)
VHH: B1 VHH with F37Y, F47Y, A101P, G106A, Y112H
notes: not shown: C-terminal c-myc tag and (His)6 tag
On to B2, for which the binding result with human Jagged-1 (Alexis) and with human DLL1 (Alexis) was “no binding (tested: 1e-6 M)” each time. Further, the “EC50 (read off the curve)” value in [4] was roughly 0.6 nM.

B3: DLLBII129E11 (VHH)
VHH: B1 VHH with F37Y, F47Y, A101P, G106R, E109L
notes: as for B2
B3: the binding result in the assay with human Jagged-1 (Alexis) and with human DLL1 (Alexis) was “no binding (tested: 1e-6 M)” each time. In addition, in [4], the concentration for a half-maximal effect (EC50 (read off the curve)) is roughly 0.6 nM.

B4: DLLBII129D08 (VHH)
VHH: B1 VHH with F37Y, F47Y, A101P, G106E, E109L
notes: as for B2
For B4, the binding result with human Jagged-1 (Alexis) and with human DLL1 (Alexis) was “no binding (tested: 1e-6 M)” throughout. For the same molecule, the “EC50 (read off the curve)” value in [4] was roughly 0.6 nM.

B5: 78B03 (VHH)
VHH: EVQLVESGGGLVQAGGSLRLSCAASGRTFSNYIMGWFRQAPGKEREFVAGISRYGDYTAYADSVKGRFTISRDNVKNTVYLRMNSLKPDDTAVYYCAANEGYCSGYGCYEDSGQYDYWGQGTQVTVSS
notes: also called DLLBII78B03
For the molecule B5, the binding result in assay [5] and in assay [6] was “binds” in each case.

B6: anti-DLL4 Fab fragment (of the Genentech anti-DLL4 mAb of US 2008/0014196) (Fab)
heavy: EVQLVESGGGLVQPGGSLRLSCAASGFTFTDNWISWVRQAPGKGLEWVGYISPNSGFTYYADSVKGRFTISADTSKNTAYLQMNSLRAEDTAVYYCARDNFGGYFDYWGQGTLVTVSS
light: DIQMTQSPSSLSASVGDRVTITCRASQDVSTAVAWYQQKPGKAPKLLIYSASFLYSGVPSRFSGSGSGTDFTLTISSLQPEDFATTYYCQQSYTGTVTFGQGTKVEIK
As to B6, the EC50 was 5.6 nM in assay [7]; 3 nM in [14]; 2.1 nM in assay [23]; 3 nM in [24]; 2.5 nM in assay [26]. For the same molecule, the half-maximal inhibitory concentration (IC50) in [8] is 0.3 nM; in [11] it was 5.5 nM and 3.4 nM; in assay [12] it was 3 nM and 1.6 nM; in assay [13], 0.7 nM; in assay [16], 5.4 nM; in assay [18], 5.5 nM and 3.4 nM. For the same molecule, the half-inhibitory concentration (IC50) is 3 nM and 1.6 nM in assay [19]; 1.5 nM and 1.2 nM in assay [20]; 1.5 nM and 1.2 nM in [21]; 2.3 nM in [22]. The molecule further had an IC50, DLL4/Notch1 reporter assay in assay [9] of 133 nM. Moreover, the IC50 (nM) (experiment 1), DLL4 proliferation assay (HUVEC) in [10] stood at 4.9 nM. For the same molecule, the IC50 (nM) (experiment 2), DLL4 proliferation assay (HUVEC) in assay [10] was 5.6 nM. For the same molecule, the EC50 (read off the curve) in assay [14] worked out at 0.9 nM; in [24], 0.8 nM. The dissociation constant Kd in [15], in assay [17] and in [25] was 1.5 nM each time. The koff in [15] and in [25] was 0.00034 s⁻¹ in each case. In addition, the kon in assay [15] and in assay [25] was 230000 M⁻¹ s⁻¹ throughout.

B7: 83G04 (VHH)
VHH: EVQLVESGGGLVKPGGSLRLSCAASGRTLYIMGWYRQAPGKEREFVAGISRYGDITYAADSVKGRFTISRDSVKNTVYLRMNSLKPDDTAVYYCAANGGYCSGYGCYEDSGQYDYWGQGTQVTVSS
notes: also called DLLBII83G04
For the molecule B7, in [5], the binding result is on record as “binds”. The “IC50 (read off the curve)” value in [6] was roughly 40 nM.
